Experimental data taken from US6362395 (WASHINGTON STATE UNIVERSITY RESEARCH FOUNDATION, dated 2002).

Biological target: calmodulin (unlabeled, as used in the gel mobility-shift and kinase assays of Example 2) (spinach, UniProt P04353 2-149)
Assay: gel mobility-shift, non-denaturing PAGE, 0.5 mM CaCl2

- binding result: no binding
B1: synthetic peptide CCaMK 328-340 (peptide, UniProt Q43531 328-340, looked up)
peptide: KLRAAAIASVLSS
